Measured values reported in the supplement of paper PMC5998384.

Experiments:
HeLa Kyoto [1] = assay: solubility change mitosis vs G1/S (difference of NP-40 vs SDS log2 ratios) (log2 ratio difference); higher = more soluble in mitosis
HeLa Kyoto [2] = assay: solubility in G1/S (NP-40 vs SDS abundance) (log2 ratio); higher = more soluble; details: cell cycle stage: G1/S
HeLa Kyoto [3] = assay: thermal stability score vs G1/S (z-score of summed log2 fold changes over temperatures); higher = more thermally stable than in G1/S
HeLa Kyoto [4] = assay: melting temperature (median over replicates), in situ; higher = more thermally stable
[5] = cell cycle stage: early G1 (4.5 h after nocodazole release)
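Wherever melting temperature (median over replicates), in situ is given: HeLa Kyoto cells synchronized by double thymidine or nocodazole block, proteins quantified by TMT10plex mass spectrometry, three independent biological replicates.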
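Wherever solubility change mitosis vs G1/S (difference of NP-40 vs SDS log2 ratios) is given: synchronized HeLa Kyoto cells (double thymidine block for G1/S, nocodazole release for mitosis), protein amounts in NP-40 versus SDS lysates quantified by mass spectrometry, three biological replicates.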
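Wherever solubility in G1/S (NP-40 vs SDS abundance) is given: HeLa Kyoto cells arrested at G1/S by double thymidine block, proteins quantified by TMT10plex mass spectrometry in mild NP-40 versus SDS extracts, three biological replicates.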
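Wherever thermal stability score vs G1/S (z-score of summed log2 fold changes over temperatures) is given: synchronized HeLa Kyoto cells, proteins quantified by TMT10plex mass spectrometry, three biological replicates, mitosis taken 0.5 h after nocodazole release, G1/S directly after double thymidine block.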

Sequence of SBF2 (chain, as listed by the source): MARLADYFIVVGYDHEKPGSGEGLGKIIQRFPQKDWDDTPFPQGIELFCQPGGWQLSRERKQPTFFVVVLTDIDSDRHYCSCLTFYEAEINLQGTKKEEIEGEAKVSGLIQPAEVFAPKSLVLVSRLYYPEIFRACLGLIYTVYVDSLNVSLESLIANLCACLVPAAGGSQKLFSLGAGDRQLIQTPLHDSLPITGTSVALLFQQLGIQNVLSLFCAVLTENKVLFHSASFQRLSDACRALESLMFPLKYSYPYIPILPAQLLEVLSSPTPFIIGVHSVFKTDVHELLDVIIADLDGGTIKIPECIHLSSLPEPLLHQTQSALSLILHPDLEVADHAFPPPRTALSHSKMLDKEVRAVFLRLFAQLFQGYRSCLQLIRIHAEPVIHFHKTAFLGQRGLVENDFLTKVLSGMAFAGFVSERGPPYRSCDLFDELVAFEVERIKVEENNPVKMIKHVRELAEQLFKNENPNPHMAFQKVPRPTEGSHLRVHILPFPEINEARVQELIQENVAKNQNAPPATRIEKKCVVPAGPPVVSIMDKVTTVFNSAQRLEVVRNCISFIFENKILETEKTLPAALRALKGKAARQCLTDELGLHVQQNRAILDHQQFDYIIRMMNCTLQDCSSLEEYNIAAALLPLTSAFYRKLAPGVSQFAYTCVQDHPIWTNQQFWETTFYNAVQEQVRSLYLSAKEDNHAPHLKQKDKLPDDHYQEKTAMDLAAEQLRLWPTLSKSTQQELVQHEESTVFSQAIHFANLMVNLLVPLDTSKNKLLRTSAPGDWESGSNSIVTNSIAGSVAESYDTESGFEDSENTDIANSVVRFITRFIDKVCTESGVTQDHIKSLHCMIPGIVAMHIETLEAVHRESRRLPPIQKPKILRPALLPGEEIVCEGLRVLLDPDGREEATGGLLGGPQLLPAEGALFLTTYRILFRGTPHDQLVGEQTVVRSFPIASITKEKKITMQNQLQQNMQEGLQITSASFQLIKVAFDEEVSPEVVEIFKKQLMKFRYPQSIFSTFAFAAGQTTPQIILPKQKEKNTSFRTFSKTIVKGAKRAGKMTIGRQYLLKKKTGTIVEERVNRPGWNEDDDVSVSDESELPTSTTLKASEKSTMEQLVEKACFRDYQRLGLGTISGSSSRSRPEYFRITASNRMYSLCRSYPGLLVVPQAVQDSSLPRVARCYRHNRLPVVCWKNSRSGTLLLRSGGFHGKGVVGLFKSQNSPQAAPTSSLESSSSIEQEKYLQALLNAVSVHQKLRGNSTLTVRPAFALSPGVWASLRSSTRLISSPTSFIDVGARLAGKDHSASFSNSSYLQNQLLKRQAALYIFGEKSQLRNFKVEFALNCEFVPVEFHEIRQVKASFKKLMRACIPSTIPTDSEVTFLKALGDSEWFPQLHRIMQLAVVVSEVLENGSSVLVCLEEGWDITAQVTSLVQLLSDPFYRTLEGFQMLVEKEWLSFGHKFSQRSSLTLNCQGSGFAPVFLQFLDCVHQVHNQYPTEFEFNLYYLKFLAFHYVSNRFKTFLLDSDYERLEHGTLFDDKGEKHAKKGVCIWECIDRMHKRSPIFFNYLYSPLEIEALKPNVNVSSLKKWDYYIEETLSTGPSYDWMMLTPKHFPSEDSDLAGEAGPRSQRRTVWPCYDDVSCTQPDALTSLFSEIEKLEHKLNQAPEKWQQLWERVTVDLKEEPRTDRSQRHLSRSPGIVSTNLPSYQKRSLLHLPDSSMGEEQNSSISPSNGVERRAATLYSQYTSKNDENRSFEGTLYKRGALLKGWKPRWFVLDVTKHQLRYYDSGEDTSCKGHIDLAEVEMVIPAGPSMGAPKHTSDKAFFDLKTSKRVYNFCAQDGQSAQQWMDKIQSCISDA
Sequence of CABIN1 (chain, as listed by the source): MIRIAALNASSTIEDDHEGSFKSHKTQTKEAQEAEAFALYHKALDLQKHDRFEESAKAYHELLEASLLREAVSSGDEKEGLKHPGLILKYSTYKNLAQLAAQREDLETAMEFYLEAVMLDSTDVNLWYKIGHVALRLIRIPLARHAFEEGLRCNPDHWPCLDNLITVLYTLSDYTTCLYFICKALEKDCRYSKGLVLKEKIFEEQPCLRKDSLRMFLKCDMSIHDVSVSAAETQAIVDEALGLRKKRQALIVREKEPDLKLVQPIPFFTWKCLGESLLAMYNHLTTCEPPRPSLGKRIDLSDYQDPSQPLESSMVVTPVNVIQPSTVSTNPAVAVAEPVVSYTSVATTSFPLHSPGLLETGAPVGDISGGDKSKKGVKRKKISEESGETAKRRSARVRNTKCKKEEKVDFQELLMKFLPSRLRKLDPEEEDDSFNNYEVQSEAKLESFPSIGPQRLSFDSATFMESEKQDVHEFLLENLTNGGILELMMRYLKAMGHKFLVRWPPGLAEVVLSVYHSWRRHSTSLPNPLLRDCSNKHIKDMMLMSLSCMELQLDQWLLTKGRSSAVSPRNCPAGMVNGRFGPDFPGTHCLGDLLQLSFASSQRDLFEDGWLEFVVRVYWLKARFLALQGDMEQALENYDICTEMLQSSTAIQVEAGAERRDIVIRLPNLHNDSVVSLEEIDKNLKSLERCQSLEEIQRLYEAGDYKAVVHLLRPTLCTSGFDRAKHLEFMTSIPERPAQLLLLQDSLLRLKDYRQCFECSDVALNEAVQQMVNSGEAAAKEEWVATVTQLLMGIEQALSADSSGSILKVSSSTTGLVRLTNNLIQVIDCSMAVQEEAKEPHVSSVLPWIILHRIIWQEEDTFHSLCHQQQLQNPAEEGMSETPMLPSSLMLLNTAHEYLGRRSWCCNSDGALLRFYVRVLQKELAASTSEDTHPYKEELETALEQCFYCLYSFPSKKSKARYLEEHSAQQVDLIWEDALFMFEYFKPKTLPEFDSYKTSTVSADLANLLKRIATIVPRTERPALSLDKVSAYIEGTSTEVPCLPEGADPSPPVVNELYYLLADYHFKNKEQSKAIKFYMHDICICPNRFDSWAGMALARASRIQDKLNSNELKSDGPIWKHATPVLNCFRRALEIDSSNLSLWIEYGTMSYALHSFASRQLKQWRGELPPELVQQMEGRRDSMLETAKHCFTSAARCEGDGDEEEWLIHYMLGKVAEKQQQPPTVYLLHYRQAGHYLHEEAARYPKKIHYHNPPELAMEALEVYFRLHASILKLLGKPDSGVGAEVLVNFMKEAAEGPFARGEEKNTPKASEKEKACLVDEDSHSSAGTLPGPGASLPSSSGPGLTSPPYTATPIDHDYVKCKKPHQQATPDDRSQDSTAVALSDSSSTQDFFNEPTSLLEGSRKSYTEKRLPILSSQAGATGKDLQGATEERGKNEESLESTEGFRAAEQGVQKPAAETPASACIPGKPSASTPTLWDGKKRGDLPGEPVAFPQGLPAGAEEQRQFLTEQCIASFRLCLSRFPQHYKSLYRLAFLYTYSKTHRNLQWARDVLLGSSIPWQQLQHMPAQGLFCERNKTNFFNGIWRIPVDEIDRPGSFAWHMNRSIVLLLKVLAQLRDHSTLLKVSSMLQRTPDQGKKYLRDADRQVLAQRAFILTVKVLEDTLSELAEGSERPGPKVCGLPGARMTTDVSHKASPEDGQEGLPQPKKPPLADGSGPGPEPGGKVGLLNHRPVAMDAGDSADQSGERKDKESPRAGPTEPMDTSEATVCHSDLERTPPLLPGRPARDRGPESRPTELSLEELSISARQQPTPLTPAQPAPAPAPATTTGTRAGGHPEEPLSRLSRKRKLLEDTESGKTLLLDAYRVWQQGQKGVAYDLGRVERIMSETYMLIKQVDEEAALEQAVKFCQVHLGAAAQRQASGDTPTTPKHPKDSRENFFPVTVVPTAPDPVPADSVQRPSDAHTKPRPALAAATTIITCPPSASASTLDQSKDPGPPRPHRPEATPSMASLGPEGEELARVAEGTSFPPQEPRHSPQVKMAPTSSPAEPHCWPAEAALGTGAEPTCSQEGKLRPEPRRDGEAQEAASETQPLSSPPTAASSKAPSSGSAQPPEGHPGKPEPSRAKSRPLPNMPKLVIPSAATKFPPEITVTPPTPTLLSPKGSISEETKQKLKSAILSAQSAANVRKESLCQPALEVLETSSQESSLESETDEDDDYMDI

Substance	solubility change mitosis (log2) (HeLa Kyoto [1])	also measured
ACTR3	-0.0203	–
ALMS1	0.225	solubility in G1/S (log2) (HeLa Kyoto [2]): 0.395
ALPK2	0.00635	solubility in G1/S (log2) (HeLa Kyoto [2]): -0.117
ARPC2	-0.0639	–
BAHCC1	0.257	solubility in G1/S (log2) (HeLa Kyoto [2]): -0.00383
BPTF	-0.0311	–
BTF3	0.172	–
CABIN1	0.144	solubility in G1/S (log2) (HeLa Kyoto [2]): -0.34
CDK2	-0.211	–
CTR9	-0.0445	–
DNPEP	-0.0236	–
DTX3L	0.0969	–
EEF2	-0.164	–
FAM175B	-0.114	–
FSCN1	-0.135	–
HIST1H4A	0.331	–
JMJD6	-0.18	–
LDHA	-0.0758	–
MALSKRELDELKPWIEKTVKRVLGFSEPTVVTAALNCVGKGMDKKKAADHLKPFLDDSTLRFVDKLFEAVEEGRSSRHSKSSSDRSRKRELKEVFGDDSEISKESSGVKKRRIPRFEEVEEEPEVIPGPPSESPGMLTKLQIKQMMEAATRQIEERKKQLSFISPPTPQPKTPSSSQPERLPIGNTIQPSQAATFMNDAIEKARKAAELQARIQAQLALKPGLIGNANMVGLANLHAMGIAPPKVELKDQTKPTPLILDEQGRTVDATGKEIELTHRMPTLKANIRAVKREQFKQQLKEKPSEDMESNTFFDPRVSIAPSQRQRRTFKFHDKGKFEKIAQRLRTKAQLEKLQAEISQAARKTGIHTSTRLALIAPKKELKEGDIPEIEWWDSYIIPNGFDLTEENPKREDYFGITNLVEHPAQLNPPVDNDTPVTLGVYLTKKEQKKLRRQTRREAQKELQEKVRLGLMPPPEPKVRISNLMRVLGTEAVQDPTKVEAHVRAQMAKRQKAHEEANAARKLTAEQRKVKKIKKLKEDISQGVHISVYRVRNLSNPAKKFKIEANAGQLYLTGVVVLHKDVNVVVVEGGPKAQKKFKRLMLHRIKWDEQTSNTKGDDDEESDEEAVKKTNKCVLVWEGTAKDRSFGEMKFKQCPTENMAREHFKKHGAEHYWDLALSESVLESTD [PRPF3]	0.331	thermal stability score (HeLa Kyoto [3]; [5]): 0.798; thermal stability score (HeLa Kyoto [3]; cell cycle stage: mitosis): 3.15
MAQPGTLNLNNEVVKMRKEVKRIRVLVIRKLVRSVGRLKSKKGTEDALLKNQRRAQRLLEEIHAMKELKPDIVTKSALGDDINFEKIFKKPDSTATERAIARLAVHPLLKKKIDVLKAAVQAFKEARQNVAEVESSKNASEDNHSENTLYSNDNGSNLQREATVISEQKVKETKILAKKPIHNSKEKIAKMEHGPKAVTIANSPSKPSEKDSVVSLESQKTPADPKLKTLSQTKKNKGSDSSLSGNSDGGEEFCEEEKEYFDDSTEERFYKQSSMSEDSDSGDDFFIGKVRRTRKKESSCHSSVKEQKPLEKVFLKEDTGETHGDTRNDKIKPSTETRKLESVFFHSLSGSKSSRRNFKEQAPKTRSLDFPQNEPQIKNQFNKKLSGRLENTKQQLQLPLHPSWEASRRRKEQQSNIAVFQGKKITFDD [SRFBP1]	0.584	thermal stability score (HeLa Kyoto [3]; [5]): -0.14; thermal stability score (HeLa Kyoto [3]; cell cycle stage: mitosis): -0.669
MMCGAPSATQPATAETQHIADQVRSQLEEKENKKFPVFKAVSFKSQVVAGTNYFIKVHVGDEDFVHLRVFQSLPHENKPLTLSNYQTNKAKHDELTYF [CSTB]	-0.077	thermal stability score (HeLa Kyoto [3]; [5]): -2.35; thermal stability score (HeLa Kyoto [3]; cell cycle stage: mitosis): -3.83

Substance	solubility change mitosis (log2) (HeLa Kyoto [1])	also measured
MRPL1	-0.101	–
MRPL2	0.0937	–
MRPL9	-0.0572	–
MRPL13	-0.0691	–
MRPL20	-0.0687	–
MRPL28	0.00818	–
MRPL30	0.00936	–
MRPL32	0.35	–
MRPL33	-0.0245	–
MRPL41	0.232	–
MRPL43	0.445	–
MRPS6	0.0185	–
MRPS10	-0.0122	–
MRPS11	-0.0467	–
MRPS21	0.0482	–
MRPS22	-0.0527	–
MRPS23	0.188	–
MRPS24	-0.0858	–
MRPS31	-0.0986	–
MRPS35	0.0565	–
MSYGRPPPDVEGMTSLKVDNLTYRTSPDTLRRVFEKYGRVGDVYIPRDRYTKESRGFAFVRFHDKRDAEDAMDAMDGAVLDGRELRVQMARYGRPPDSHHSRRGPPPRRYGGGGYGRRSRSPRRRRRSRSRSRSRSRSRSRSRYSRSKSRSRTRSRSRSTSKSRSARRSKSKSSSVSRSRSRSRSRSRSRSPPPVSKRESKSRSRSKSPPKSPEEEGAVSS [SRSF2]	0.24	thermal stability score (HeLa Kyoto [3]; [5]): -2.71; thermal stability score (HeLa Kyoto [3]; cell cycle stage: mitosis): -5.51

Substance	solubility change mitosis (log2) (HeLa Kyoto [1])	also measured
MTAEETVNVKEVEIIKLILDFLNSKKLHISMLALEKESGVINGLFSDDMLFLRQLILDGQWDEVLQFIQPLECMEKFDKKRFRYIILKQKFLEALCVNNAMSAEDEPQHLEFTMQEAVQCLHALEEYCPSKDDYSKLCLLLTLPRLTNHAEFKDWNPSTARVHCFEEACVMVAEFIPADRKLSEAGFKASNNRLFQLVMKGLLYECCVEFCQSKATGEEITESEVLLGIDLLCGNGCDDLDLSLLSWLQNLPSSVFSCAFEQKMLNIHVDKLLKPTKAAYADLLTPLISKLSPYPSSPMRRPQSADAYMTRSLNPALDGLTCGLTSHDKRISDLGNKTSPMSHSFANFHYPGVQNLSRSLMLENTECHSIYEESPERDTPVDAQRPIGSEILGQSSVSEKEPANGAQNPGPAKQEKNELRDSTEQFQEYYRQRLRYQQHLEQKEQQRQIYQQMLLEGGVNQEDGPDQQQNLTEQFLNRSIQKLGELNIGMDGLGNEVSALNQQCNGSKGNGSNGSSVTSFTTPPQDSSQRLTHDASNIHTSTPRNPGSTNHIPFLEESPCGSQISSEHSVIKPPLGDSPGSLSRSKGEEDDKSKKQFVCINILEDTQAVRAVAFHPAGGLYAVGSNSKTLRVCAYPDVIDPSAHETPKQPVVRFKRNKHHKGSIYCVAWSPCGQLLATGSNDKYVKVLPFNAETCNATGPDLEFSMHDGTIRDLAFMEGPESGGAILISAGAGDCNIYTTDCQRGQGLHALSGHTGHILALYTWSGWMIASGSQDKTVRFWDLRVPSCVRVVGTTFHGTGSAVASVAVDPSGRLLATGQEDSSCMLYDIRGGRMVQSYHPHSSDVRSVRFSPGAHYLLTGSYDMKIKVTDLQGDLTKQLPIMVVGEHKDKVIQCRWHTQDLSFLSSSADRTVTLWTYNG [WDR47]	–	melting temperature (HeLa Kyoto [4]; cell cycle stage: G1/S): 54.4 °C; melting temperature (HeLa Kyoto [4]; cell cycle stage: mitosis): 52.6 °C; thermal stability score (HeLa Kyoto [3]; [5]): -2.39; thermal stability score (HeLa Kyoto [3]; cell cycle stage: mitosis): -1.92
MTKDKNSPGLKKKSQSVDINAPGFNPLAGAGKQTPQASKPPAPKTPIIEEEQNNAANTQKHPSRRSELKRFYTIDTGQKKTLDKKDGRRMSFQKPKGTIEYTVESRDSLNSIALKFDTTPNELVQLNKLFSRAVVTGQVLYVPDPEYVSSVESSPSLSPVSPLSPTSSEAEFDKTTNPDVHPTEATPSSTFTGIRPARVVSSTSEEEEAFTEKFLKINCKYITSGKGTVSGVLLVTPNNIMFDPHKNDPLVQENGCEEYGIMCPMEEVMSAAMYKEILDSKIKESLPIDIDQLSGRDFCHSKKMTGSNTEEIDSRIRDAGNDSASTAPRSTEESLSEDVFTESELSPIREELVSSDELRQDKSSGASSESVQTVNQAEVESLTVKSESTGTPGHLRSDTEHSTNEVGTLCHKTDLNNLEMAIKEDQIADNFQGISGPKEDSTSIKGNSDQDSFLHENSLHQEESQKENMPCGETAEFKQKQSVNKGKQGKEQNQDSQTEAEELRKLWKTHTMQQTKQQRENIQQVSQKEAKHKITSADGHIESSALLKEKQRHRLHKFLCLRVGKPMRKTFVSQASATMQQYAQRDKKHEYWFAVPQERTDHLYAFFIQWSPEIYAEDTGEYTREPGFIVVKKIEESETIEDSSNQAAAREWEVVSVAEYHRRIDALNTEELRTLCRRLQITTREDINSKQVATVKADLESESFRPNLSDPSELLLPDQIEKLTKHLPPRTIGYPWTLVYGTGKHGTSLKTLYRTMTGLDTPVLMVIKDSDGQVFGALASEPLKVSDGFYGTGETFVFTFCPEFEVFKWTGDNMFFIKGDMDSLAFGGGGGEFALWLDGDLYHGRSHSCKTFGNRTLSKKEDFFIQDIEIWAFE [OXR1]	-0.176	thermal stability score (HeLa Kyoto [3]; [5]): -0.363; thermal stability score (HeLa Kyoto [3]; cell cycle stage: mitosis): -2.03
MTMAAAAVVARGAGARAATAAALRGGCGTAARGRPCAGPARPLCTAPGTAPDMKRYLWERYREAKRSTEELVPSIMSNLLNPDAIFSNNEMSLSDIEIYGFDYDYTLVFYSKHLHTLIFNAARDLLINEHRYPAEIRKYEYDPNFAIRGLHYDVQRAVLMKIDAFHYIQLGTVYRGLSVVPDEEVIEMYEGSHVPLEQMSDFYGKSSHGNTMKQFMDIFSLPEMTLLSCVNEYFLKNNIDYEPVHLYKDVKDSIRDVHIKGIMYRAIEADIEKYICYAEQTRAVLAKLADHGKKMFLITNSPSSFVDKGMSYIVGKDWRDLFDVVIVQAEKPNFFNDKRRPFRKMNEKGVLLWDKIHKLQKGQIYKQGNLYEFLKLTGWRGSRVLYFGDHIYSDLADLTLKHGWRTGAIIPELRSELKIMNTEQYIQTMTWLQTLTGLLEQMQVHRDAESQLVLQEWKKERKEMREMTKSFFNAQFGSLFRTDQNPTYFLRRLSRFADIYMASLSCLLNYDVSHTFYPRRTPLQHELPAWSERPPTFGTPLLQEAQAK [NT5DC3]	–	melting temperature (HeLa Kyoto [4]; cell cycle stage: G1/S): 53.4 °C; melting temperature (HeLa Kyoto [4]; cell cycle stage: mitosis): 54 °C; thermal stability score (HeLa Kyoto [3]; [5]): -1.05; thermal stability score (HeLa Kyoto [3]; cell cycle stage: mitosis): -1.22
NAA40	0.145	–
PRKACB	-0.134	–
PSEN1	0.045	–
RPL3	0.667	–
RPL5	0.442	–
RPL7A	0.753	–
RPL9	0.502	–
RPL12	0.659	–
RPL13A	0.619	–
RPL18	0.797	–
RPL19	0.873	–
RPL21	0.856	–
RPL22	0.576	–
RPL26L1	0.994	–
RPL35	1.27	–
RPS2	0.389	–
RPS8	0.735	–
RPS9	0.434	–

Substance	solubility change mitosis (log2) (HeLa Kyoto [1])	also measured
RPS13	0.484	–
RPS15	0.616	–
RPS15A	0.424	–
RPS16	0.511	–
RPS18	0.385	–
RPS28	0.73	–
RPS29	0.655	–
SBF2	–	melting temperature (HeLa Kyoto [4]; cell cycle stage: mitosis): 52.3 °C; thermal stability score (HeLa Kyoto [3]; [5]): -0.139; thermal stability score (HeLa Kyoto [3]; cell cycle stage: mitosis): 0.0344
SCFD1	-0.0937	–
SLIRP	0.0681	–
SNCA	0.157	–
STAM2	-0.173	–
SUPT6H	0.0526	–
TFRC	-0.13	–
TIMP1	–	melting temperature (HeLa Kyoto [4]; cell cycle stage: G1/S): 54.8 °C; melting temperature (HeLa Kyoto [4]; cell cycle stage: mitosis): 54.5 °C; thermal stability score (HeLa Kyoto [3]; [5]): 0.849; thermal stability score (HeLa Kyoto [3]; cell cycle stage: mitosis): -1.24
TPRG1L	-0.205	–
UBA52	0.558	–
VPS29	-0.224	–
WDR5	-0.102	–
